Legend:
Test in all cases: cell-based or functional assay
[1] = target: HIV-1 Env of pseudovirus CAP45 (HIV-1)
[2] = target: HIV-1 Env of pseudovirus DU156 (HIV-1)
[3] = target: HIV-1 Env of isolate 92TH021 (clade AE) (HIV-1)
[4] = target: HIV-1 Env of isolate MGRM-C-028 (clade C) (HIV-1)
[5] = target: HIV-1 93IN905 Env (HIV-1 isolate 93IN905 (clade C))
[6] = target: HIV-1 94UG103 Env (HIV-1 isolate 94UG103 (clade A))
[7] = target: HIV-1 MGRM-D-018 Env (HIV-1 isolate MGRM-D-018 (clade D))
[8] = target: HIV-1 92UG005 envelope glycoprotein (Env), clade D pseudovirus (HIV-1)
[9] = target: HIV-1 93IN905 envelope glycoprotein (Env), clade C pseudovirus (HIV-1)
[10] = target: HIV-1 JRCSF envelope glycoprotein (Env), clade B pseudovirus (HIV-1)
[11] = target: HIV-1 JRFL envelope glycoprotein (Env), clade B pseudovirus (HIV-1)
[12] = target: HIV-1 MGRM-D-001 envelope glycoprotein (Env), clade D pseudovirus (HIV-1)
[13] = target: HIV-1 92UG005 envelope glycoprotein (Env) on virus (HIV-1, clade D, isolate 92UG005)
[14] = target: HIV-1 APV13 envelope glycoprotein (Env) on virus (HIV-1, clade B, isolate APV13)
[15] = target: HIV-1 MGRM-AG-005 envelope glycoprotein (Env) on virus (HIV-1, clade AG, isolate MGRM-AG-005)
[16] = target: HIV-1 MGRM-C-026 envelope glycoprotein (Env) on virus (HIV-1, clade C, isolate MGRM-C-026)
[17] = target: HIV-1 MGRM-C-027 envelope glycoprotein (Env) on virus (HIV-1, clade C, isolate MGRM-C-027)
[18] = target: HIV-1 APV13 Env (pseudovirus) (HIV-1)
[19] = target: HIV-1 MGRM-D-001 Env (pseudovirus) (HIV-1)
[20] = target: HIV-1 envelope glycoprotein (Env) of isolate 92BR020 (HIV-1)
[21] = target: HIV-1 envelope glycoprotein (Env) of isolate MGRM-A-010 (HIV-1)
[22] = target: HIV-1 envelope glycoprotein (Env) of isolate MGRM-AG-005 (HIV-1)
[23] = target: HIV-1 envelope glycoprotein (Env) of isolate NL43 (HIV-1)
[24] = target: HIV-1 93IN905 envelope glycoprotein (Env) (HIV-1)
[25] = target: HIV-1 MGRM-C-026 envelope glycoprotein (Env) (HIV-1)
[26] = target: aMLV envelope protein
[27] = target: aMLV envelope protein on pseudovirus (control virus)
[28] = target: HIV-1 Env of isolate MG RM-D-022 (subtype D) (HIV-1)
[29] = target: HIV-1 Env of isolate MGRM-Chronic-B-020 (subtype B), on pseudovirus (HIV-1)
[30] = target: HIV-1 Env of isolate MGRM-F1-014 (subtype F) (HIV-1)

5329_C19 (PGT-136) (antibody), sequence (VH): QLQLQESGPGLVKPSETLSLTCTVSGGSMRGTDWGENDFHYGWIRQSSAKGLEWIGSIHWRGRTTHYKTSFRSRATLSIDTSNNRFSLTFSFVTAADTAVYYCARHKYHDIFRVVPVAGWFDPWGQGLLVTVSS
5329_C19 (PGT-136) (antibody), sequence (VL): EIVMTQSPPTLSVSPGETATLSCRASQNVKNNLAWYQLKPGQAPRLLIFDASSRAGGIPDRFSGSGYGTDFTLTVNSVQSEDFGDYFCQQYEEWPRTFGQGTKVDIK
1443_C16 (PG16) (TCN-116) (antibody), sequence (VH): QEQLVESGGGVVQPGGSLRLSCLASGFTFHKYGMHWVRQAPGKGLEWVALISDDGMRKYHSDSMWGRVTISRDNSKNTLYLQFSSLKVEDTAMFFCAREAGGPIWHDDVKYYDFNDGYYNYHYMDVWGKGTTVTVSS
1443_C16 (PG16) (TCN-116) (antibody), sequence (VL): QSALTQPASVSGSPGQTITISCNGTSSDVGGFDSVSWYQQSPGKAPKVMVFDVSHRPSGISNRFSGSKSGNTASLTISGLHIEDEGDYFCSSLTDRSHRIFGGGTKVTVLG

Substance: 1443_C16 (PG16) (TCN-116) (antibody)
- IC50, pseudovirus neutralization (TZM-bl assay) [1]: < 0.01 µg/mL
- IC50, pseudovirus neutralization (TZM-bl assay) [2]: < 0.01 µg/mL

Substance: 1496_C09 (PG9) (TCN-109) (antibody)
- Neutralization IC80 [3]: 0.448 µg/mL
- Neutralization IC90 [3]: 1.07 µg/mL
- Neutralization IC95 [3]: 2.43 µg/mL
- neutralization IC50 [3]: 0.103 µg/mL
- Neutralization IC80 [4]: 0.645 µg/mL
- Neutralization IC90 [4]: 1.65 µg/mL
- Neutralization IC95 [4]: 3.71 µg/mL
- neutralization IC50 [4]: 0.121 µg/mL

Substance: 4838_L06 (PGT-121) (antibody)
- Neutralization IC80 [5]: 0.0302 µg/mL
- Neutralization IC90 [5]: 0.0645 µg/mL
- Neutralization IC80 [6]: 8.85 µg/mL
- Neutralization IC80 [7]: 0.0231 µg/mL
- Neutralization IC90 [7]: 0.0414 µg/mL
- Neutralization IC95 [7]: 0.0715 µg/mL

Substance: 4858_P08 (PGT-123) (antibody)
- IC50, pseudovirus neutralization [8]: 2.49 µg/mL
- IC80 (pseudovirus neutralization) [8]: > 10 µg/mL
- IC90 (pseudovirus neutralization) [8]: > 10 µg/mL
- IC95 (pseudovirus neutralization) [8]: > 10 µg/mL
- IC50, pseudovirus neutralization [9]: 0.0071 µg/mL
- IC80 (pseudovirus neutralization) [9]: 0.0281 µg/mL
- IC90 (pseudovirus neutralization) [9]: 0.0625 µg/mL
- IC95 (pseudovirus neutralization) [9]: 0.131 µg/mL
- IC50, pseudovirus neutralization [10]: 0.0423 µg/mL
- IC80 (pseudovirus neutralization) [10]: 0.143 µg/mL
- IC90 (pseudovirus neutralization) [10]: 0.289 µg/mL
- IC95 (pseudovirus neutralization) [10]: 0.547 µg/mL
- IC50, pseudovirus neutralization [11]: 0.0283 µg/mL
- IC80 (pseudovirus neutralization) [11]: 0.0904 µg/mL
- IC90 (pseudovirus neutralization) [11]: 0.178 µg/mL
- IC95 (pseudovirus neutralization) [11]: 0.332 µg/mL
- IC50, pseudovirus neutralization [12]: 0.215 µg/mL
- IC80 (pseudovirus neutralization) [12]: 0.678 µg/mL
- IC90 (pseudovirus neutralization) [12]: 1.31 µg/mL
- IC95 (pseudovirus neutralization) [12]: 2.33 µg/mL

Substance: 4877_D15 (PGT-122) (antibody)
- Neutralization IC80 [13]: > 10 µg/mL
- Neutralization IC90 [13]: > 10 µg/mL
- Neutralization IC95 [13]: > 10 µg/mL
- neutralization IC50 [13]: > 10 µg/mL
- Neutralization IC80 [14]: 4.14 µg/mL
- Neutralization IC90 [14]: 8.6 µg/mL
- Neutralization IC95 [14]: > 10 µg/mL
- neutralization IC50 [14]: 0.992 µg/mL
- Neutralization IC80 [15]: > 10 µg/mL
- Neutralization IC90 [15]: > 10 µg/mL
- Neutralization IC95 [15]: > 10 µg/mL
- neutralization IC50 [15]: > 10 µg/mL
- Neutralization IC80 [16]: 0.037 µg/mL
- Neutralization IC90 [16]: 0.0849 µg/mL
- Neutralization IC95 [16]: 0.181 µg/mL
- neutralization IC50 [16]: 0.0089 µg/mL
- Neutralization IC80 [17]: 0.499 µg/mL
- Neutralization IC90 [17]: > 10 µg/mL
- Neutralization IC95 [17]: > 10 µg/mL
- neutralization IC50 [17]: 0.0388 µg/mL

Substance: 5123_A06 (PGT-125) (antibody)
- Neutralization by PGT-125, IC50 [18]: 0.0128 µg/mL
- Neutralization by PGT-125, IC80 [18]: 0.0414 µg/mL
- Neutralization by PGT-125, IC90 [18]: 0.0821 µg/mL
- Neutralization by PGT-125, IC95 [18]: 0.154 µg/mL
- Neutralization by PGT-125, IC50 [19]: 2.31 µg/mL
- Neutralization by PGT-125, IC80 [19]: > 10 µg/mL
- Neutralization by PGT-125, IC90 [19]: > 10 µg/mL
- Neutralization by PGT-125, IC95 [19]: > 10 µg/mL

Substance: 5141_B17 (PGT-126) (antibody)
- Neutralization IC80 [20]: 0.0457 µg/mL
- Neutralization IC90 [20]: 0.0846 µg/mL
- Neutralization IC95 [20]: 0.152 µg/mL
- neutralization IC50 [20]: 0.0163 µg/mL
- Neutralization IC80 [21]: 0.0137 µg/mL
- Neutralization IC90 [21]: 0.0316 µg/mL
- Neutralization IC95 [21]: 0.0687 µg/mL
- neutralization IC50 [21]: 0.0033 µg/mL
- Neutralization IC80 [22]: > 10 µg/mL
- Neutralization IC90 [22]: > 10 µg/mL
- Neutralization IC95 [22]: > 10 µg/mL
- neutralization IC50 [22]: 1.35 µg/mL
- Neutralization IC80 [23]: > 10 µg/mL
- Neutralization IC90 [23]: > 10 µg/mL
- Neutralization IC95 [23]: > 10 µg/mL
- neutralization IC50 [23]: > 10 µg/mL

Substance: 5329_C19 (PGT-136) (antibody)
- Neutralization IC80 [24]: 0.0623 µg/mL
- Neutralization IC90 [24]: 0.156 µg/mL
- Neutralization IC95 [24]: 0.379 µg/mL
- neutralization IC50 [24]: 0.0135 µg/mL
- Neutralization IC80 [25]: 0.0285 µg/mL
- Neutralization IC90 [25]: 0.0687 µg/mL
- Neutralization IC95 [25]: 0.159 µg/mL
- neutralization IC50 [25]: 0.0065 µg/mL
- Neutralization IC80 [26]: > 10 µg/mL
- Neutralization IC90 [26]: > 10 µg/mL
- Neutralization IC95 [26]: > 10 µg/mL
- neutralization IC50 [26]: > 10 µg/mL

Substance: 5343_B08 (PGT-135) (antibody)
- Neutralization IC80 [27]: > 10 µg/mL
- Neutralization IC90 [27]: > 10 µg/mL
- Neutralization IC95 [27]: > 10 µg/mL
- neutralization IC50 [27]: > 10 µg/mL

Substance: PGV04 (antibody)
- IC50 (µg/mL), pseudovirus neutralization [28]: > 50 µg/mL
- IC50, single-round pseudovirus neutralization [29]: 1.26 µg/mL
- IC50 (µg/mL), pseudovirus neutralization [30]: 0.02 µg/mL

Source: patent US20240132578A1
